# Measured values as given in US20100015637A1 (AbbVie / Abbott, published 2010).
# T1: CHO human PlGF-1 comprising amino acids 1-137 (human PlGF-1-His (1-131), CHO 6305) (human, UniProt P49763 19-221, N-glycans at N21 (completely glycosylated) and N89 (partially glycosylated))
# T1 construct: Mature human PlGF-1 with 6xHis tag (137 amino acids); also called CHO (1-137)
# T1 sequence: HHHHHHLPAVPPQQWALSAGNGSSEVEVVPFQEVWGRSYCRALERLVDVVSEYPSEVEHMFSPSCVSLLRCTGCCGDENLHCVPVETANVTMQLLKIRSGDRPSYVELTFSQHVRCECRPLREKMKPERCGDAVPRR
# T2: human PlGF-1 fragment (comprising amino acids 17-131) produced in human embryonic kidney cells (human, UniProt P49763 35-221)
# T2 sequence: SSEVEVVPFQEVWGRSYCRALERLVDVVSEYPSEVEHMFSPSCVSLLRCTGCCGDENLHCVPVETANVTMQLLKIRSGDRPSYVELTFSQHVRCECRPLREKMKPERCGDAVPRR
# T3: CHO human PlGF-1 fragment (comprising amino acids 17-131; ATCC PTA-8540) (human, UniProt P49763 35-221)
# T3 sequence: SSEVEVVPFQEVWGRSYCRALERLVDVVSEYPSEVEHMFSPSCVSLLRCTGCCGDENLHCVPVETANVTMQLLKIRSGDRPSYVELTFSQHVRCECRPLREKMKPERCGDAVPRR
# T4: human PlGF-1 comprising amino acids 1-137 produced in human embryonic kidney cells (human, UniProt P49763 19-221)
# T4 construct: Mature human PlGF-1 with 6xHis tag; also called HEK (1-137); full length HEK human PlGF-1 (1-137)
# T4 sequence: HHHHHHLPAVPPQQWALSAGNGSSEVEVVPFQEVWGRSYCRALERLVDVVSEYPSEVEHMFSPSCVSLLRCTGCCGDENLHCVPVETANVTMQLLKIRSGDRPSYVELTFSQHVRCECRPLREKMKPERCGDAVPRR
# Legend:
# [1] = molecular target: human PlGF-1 comprising amino acids 1-137 produced in human embryonic kidney cells (human) (UniProt P49763); experiment: Format 1 …, capture 2-826-335, detection 1-255-713; sFlt-1 1533 pmol/L (ratio 50)
# [2] = molecular target: human PlGF-1 comprising amino acids 1-137 produced in human embryonic kidney cells (human) (UniProt P49763); experiment: Format 1 …, capture 2-826-335, detection 1-255-713; sFlt-1 307 pmol/L (ratio 10)
# [3] = molecular target: human PlGF-1 comprising amino acids 1-137 produced in human embryonic kidney cells (human) (UniProt P49763); experiment: Format 1 …, capture 2-826-335, detection 1-255-713; sFlt-1 153 pmol/L (ratio 5)
# [4] = molecular target: human PlGF-1 comprising amino acids 1-137 produced in human embryonic kidney cells (human) (UniProt P49763); experiment: Format 3 Quantikine ELISA, capture MAb264, detection Pb264; sFlt-1 77 pmol/L (ratio 2.5)
# [5] = molecular target: T1, CHO human PlGF-1 comprising amino acids …; experiment: … sandwich, capture MAb255, detection MAb826; antigen 15 pg/mL
# How it was run: (§1)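 In a sandwich immunoassay, human PlGF-1 antigen preparations, including recombinant forms expressed in CHO cells, were tested at 0 to 1500 pg/mL. Magnetic microparticles carried a monoclonal anti-human PlGF-1 capture antibody, attached by passive coating and EDAC cross-linking, and a second monoclonal anti-human PlGF-1 antibody labeled with acridinium ester served for detection. At each antigen level, the chemiluminescent signal was read in relative light units (RLU).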
# [6] = molecular target: T2, human PlGF-1 fragment (comprising amino …); experiment: as above
# How it was run: as §1
# [7] = molecular target: T3, CHO human PlGF-1 fragment (comprising …); experiment: as above
# How it was run: as §1
# [8] = molecular target: T4, human PlGF-1 comprising amino acids …; experiment: as above
# How it was run: as §1
# [9] = molecular target: recombinant human PlGF-1 (comprising amino acids 1-131) expressed in E. coli (R&D Systems) (human) (UniProt P49763); experiment: … sandwich, capture MAb255, detection pAb264; antigen 750 pg/mL
# [10] = molecular target: T2, human PlGF-1 fragment (comprising amino …); experiment: … sandwich, capture MAb255, detection MAb826; antigen 60 pg/mL
# How it was run: as §1
# [11] = molecular target: T3, CHO human PlGF-1 fragment (comprising …); experiment: as above
# How it was run: as §1
# [12] = molecular target: T4, human PlGF-1 comprising amino acids …; experiment: as above
# How it was run: as §1
# [13] = molecular target: recombinant human PlGF-1 (comprising amino acids 1-131) expressed in E. coli (R&D Systems) (human) (UniProt P49763); experiment: … sandwich, capture MAb255, detection MAb826; antigen 1500 pg/mL
# [14] = molecular target: T1, CHO human PlGF-1 comprising amino acids …; experiment: … sandwich, capture MAb255, detection MAb826; antigen 0 pg/mL (blank)
# How it was run: as §1
# [15] = molecular target: T2, human PlGF-1 fragment (comprising amino …); experiment: as above
# How it was run: as §1
# [16] = molecular target: T3, CHO human PlGF-1 fragment (comprising …); experiment: as above
# How it was run: as §1
# [17] = molecular target: T4, human PlGF-1 comprising amino acids …; experiment: as above
# How it was run: as §1
# [18] = molecular target: T2, human PlGF-1 fragment (comprising amino …); experiment: … sandwich, capture MAb826, detection pAb264; antigen 60 pg/mL
# [19] = molecular target: T4, human PlGF-1 comprising amino acids …; experiment: as above
molecule,measurement,setting,value
"native sFlt-1, isolated from human placental tissue (from UniProt P17948 27-687) (receptor)",% Inhibition,[1],92.5%
same,PlGF-1 Measured,[1],76.6 pg/mL
same,% Inhibition,[2],80.7%
same,PlGF-1 Measured,[2],197 pg/mL
same,% Inhibition,[3],64.1%
same,PlGF-1 Measured,[3],367 pg/mL
same,% Inhibition,[4],18.3%
same,PlGF-1 Measured,[4],707 pg/mL
"monoclonal antibody 1-255-713 (produced by murine hybridoma cell line 1-255-713, ATCC PTA-8536) (antibody, mouse IgG2a, V domains shown, also called MAb255) VH: QVHLQQSGAELMKPGASVKISCKATGYTFSSYWIEWVKQRPGHGLEWIGEILPGSVSNNFNEKFKDKATLTADPSSNTAYIQVSSLTSEDSAVYYCARSTGFYYGGNYFDHWGQGTTLAVSS VL: DVVMTQTPLSLPVSPGDQASISCRSSQSLVHSNGHTYLHWYLQKPGQSPKLLIYKVSNRFSGVPDRVSGSGSGTDFTLKISRVEAEDLGVYFCSQSTHVPPTFGGGTKLEIKR",RLU,[5],14500 RLU
same,RLU,[6],17200 RLU
same,RLU,[7],13300 RLU
same,RLU,[8],26700 RLU
same,RLU,[9],1.32e+06 RLU
same,RLU,[10],57900 RLU
same,RLU,[11],42100 RLU
same,RLU,[12],101000 RLU
same,RLU,[13],1.35e+06 RLU
same,RLU,[14],6270 RLU
same,RLU,[15],5760 RLU
same,RLU,[16],5940 RLU
same,RLU,[17],6110 RLU
"monoclonal antibody 2-826-335 (produced by murine hybridoma cell line 2-826-335, ATCC PTA-8539) (antibody, mouse IgG1, V domains shown, also called MAb826) VH: QVQLKQSGPGLVQPSQSLSITCTVSGFSLTTYGIHWVRQSPGKGLEWLGVMWSGGDTDYDAAFISRLSISKDNSKSQVFFKMNSLQANDTGIYYCARYRFYGMDYWGQGTSVTVSS VL: AIQMTQSSSSFSVSLGDRVTITCKASEDIYNRFAWYQQKPGNAPRLLISGAASLEAGVPSRFSGSGSGQDYTLSITSLQTEDVATYYCQQYWSTPWTFGGGTKLEIKR",RLU,[18],36900 RLU
same,RLU,[19],47700 RLU
